Data: patent US20160151519A1 (JOHN HOPKINS UNIVERSITY, published 2016)

T1: CD66c immunopurified from LS174T colon carcinoma cell lysate (human, UniProt P40199 35-320)
T1 construct: mature; Blot band or adsorbed on microspheres
T1 sequence (looked up): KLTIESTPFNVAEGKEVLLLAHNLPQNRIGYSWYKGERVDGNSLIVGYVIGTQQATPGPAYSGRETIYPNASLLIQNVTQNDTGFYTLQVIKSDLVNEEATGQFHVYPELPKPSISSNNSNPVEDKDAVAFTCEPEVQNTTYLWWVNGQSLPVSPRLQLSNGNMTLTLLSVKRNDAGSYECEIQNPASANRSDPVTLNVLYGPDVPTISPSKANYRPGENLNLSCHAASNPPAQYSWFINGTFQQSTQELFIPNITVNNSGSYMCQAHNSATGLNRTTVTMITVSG

T2: P-selectin on CHO cells stably transfected with the phosphatidylinositol glycan-linked extracellular domain … (UniProt P16109 42-771, limits assumed, phosphatidylinositol glycan-linked)
T2 construct: extracellular domain; also called P-selectin-expressing CHO cells
T2 sequence (looked up): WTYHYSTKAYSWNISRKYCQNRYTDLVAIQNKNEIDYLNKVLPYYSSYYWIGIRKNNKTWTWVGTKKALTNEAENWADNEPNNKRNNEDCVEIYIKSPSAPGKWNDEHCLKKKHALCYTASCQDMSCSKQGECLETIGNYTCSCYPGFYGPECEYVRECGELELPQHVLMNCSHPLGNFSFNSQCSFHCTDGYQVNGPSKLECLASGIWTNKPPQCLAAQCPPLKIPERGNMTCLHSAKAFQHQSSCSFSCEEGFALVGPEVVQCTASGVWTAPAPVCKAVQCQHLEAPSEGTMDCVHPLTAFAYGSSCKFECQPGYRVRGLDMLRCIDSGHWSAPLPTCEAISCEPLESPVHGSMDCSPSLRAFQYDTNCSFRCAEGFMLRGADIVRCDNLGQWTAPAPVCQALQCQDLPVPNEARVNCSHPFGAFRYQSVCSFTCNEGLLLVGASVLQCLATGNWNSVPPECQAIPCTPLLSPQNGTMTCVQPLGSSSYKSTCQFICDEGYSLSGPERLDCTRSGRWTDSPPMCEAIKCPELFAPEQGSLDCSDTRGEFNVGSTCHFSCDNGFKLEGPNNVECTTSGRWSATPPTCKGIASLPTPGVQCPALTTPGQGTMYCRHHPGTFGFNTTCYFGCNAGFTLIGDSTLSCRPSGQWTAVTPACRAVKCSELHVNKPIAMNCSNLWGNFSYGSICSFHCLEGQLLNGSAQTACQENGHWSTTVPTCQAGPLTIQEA

B1: E-selectin-IgG Fc chimera (Fc fusion, human, UniProt P16581 22-301, looked up)
chain: WSYNTSTEAMTYDEASAYCQQRYTHLVAIQNKEEIEYLNSILSYSPSYYWIGIRKVNNVWVWVGTQKPLTEEAKNWAPGEPNNRQKDEDCVEIYIKREKDVGMWNDERCSKKKLALCYTAACTNTSCSGHGECVETINNYTCKCDPGFSGLKCEQIVNCTALESPEHGSLVCSHPLGNFSYNSSCSISCDRGYLPSSMETMQCMSSGEWSAPIPACNVVECDAVTNPANGFVECFQNPGSFPWNTTCTFDCEEGFELMGAQSLQCTSSGNWDNEKPTCKA
notes: domain: lectin, epidermal growth factor and consensus repeat domains; From Wyeth External Research; immobilised on dishes (10 µg/ml for microbeads, 0.75 µg/ml for cells); also called chimeric form of E-selectin-IgG Fc; not shown: human IgG1 (printed 'IgGi'); selectin domains linked to each arm of the IgG
B2: carcinoembryonic antigen (CEA) immunopurified from LS174T colon carcinoma cell lysate (ligand, human, UniProt P06731 35-685, looked up)
chain: KLTIESTPFNVAEGKEVLLLVHNLPQHLFGYSWYKGERVDGNRQIIGYVIGTQQATPGPAYSGREIIYPNASLLIQNIIQNDTGFYTLHVIKSDLVNEEATGQFRVYPELPKPSISSNNSKPVEDKDAVAFTCEPETQDATYLWWVNNQSLPVSPRLQLSNGNRTLTLFNVTRNDTASYKCETQNPVSARRSDSVILNVLYGPDAPTISPLNTSYRSGENLNLSCHAASNPPAQYSWFVNGTFQQSTQELFIPNITVNNSGSYTCQAHNSDTGLNRTTVTTITVYAEPPKPFITSNNSNPVEDEDAVALTCEPEIQNTTYLWWVNNQSLPVSPRLQLSNDNRTLTLLSVTRNDVGPYECGIQNELSVDHSDPVILNVLYGPDDPTISPSYTYYRPGVNLSLSCHAASNPPAQYSWLIDGNIQQHTQELFISNITEKNSGLYTCQANNSASGHSRTTVKTITVSAELPKPSISSNNSKPVEDKDAVAFTCEPEAQNTTYLWWVNGQSLPVSPRLQLSNGNRTLTLFNVTRNDARAYVCGIQNSVSANRSDPVTLDVLYGPDTPIISPPDSSYLSGANLNLSCHSASNPSPQYSWRINGIPQQHTQVLFIAKITPNNNGTYACFVSNLATGRNNSIVKSITVSASGTSPGLSA
modifications: sialofucosylated (HECA-452-reactive) O-linked glycans
notes: mature; One entry for CEA from wild-type and from CD44-knockdown LS174T cells; Used as blot band or adsorbed on microspheres; also called CD66e; CEACAM5
B3: L-selectin on human peripheral blood lymphocytes (receptor, UniProt P14151 39-372, looked up)
chain: WTYHYSEKPMNWQRARRFCRDNYTDLVAIQNKAEIEYLEKTLPFSRSYYWIGIRKIGGIWTWVGTNKSLTEEAENWGDGEPNNKKNKEDCVEIYIKRNKDAGKWNDDACHKLKAALCYTASCQPWSCSGHGECVEIINNYTCNCDVGYYGPQCQFVIQCEPLEAPELGTMDCTHPLGNFSFSSQCAFSCSEGTNLTGIEETTCGPFGNWSSPEPTCQVIQCEPLSAPDLGIMNCSHPLASFSFTSACTFICSEGTELIGKKKTICESSGIWSNPSPICQKLDKSFSMIKEGDYNPLFIPVAVMVTAFSGLAFIIWLARRLKKGKKSKRSMNDPY
notes: whole, on cells; also called Lymphocyte (L-selectin); L-selectin-expressing human peripheral blood lymphocytes
B4: P-selectin-IgG Fc chimera (Fc fusion, human, UniProt P16109 42-321, looked up)
chain: WTYHYSTKAYSWNISRKYCQNRYTDLVAIQNKNEIDYLNKVLPYYSSYYWIGIRKNNKTWTWVGTKKALTNEAENWADNEPNNKRNNEDCVEIYIKSPSAPGKWNDEHCLKKKHALCYTASCQDMSCSKQGECLETIGNYTCSCYPGFYGPECEYVRECGELELPQHVLMNCSHPLGNFSFNSQCSFHCTDGYQVNGPSKLECLASGIWTNKPPQCLAAQCPPLKIPERGNMTCLHSAKAFQHQSSCSFSCEEGFALVGPEVVQCTASGVWTAPAPVCKA
notes: domain: lectin, epidermal growth factor and consensus repeat domains; From Wyeth External Research; immobilised on dishes; also called chimeric form of P-selectin-IgG Fc; not shown: human IgG1 (printed 'IgGi'); selectin domains linked to each arm of the IgG

How the values were obtained:
[1] = target: E-selectin-IgG Fc chimera (human) (UniProt P16581); experiment: flow-based adhesion assay, sialidase-treated against untreated PCLP-coated microbeads on 10 µg/ml E-selectin at 1 dyn/cm2
[2] = target: T1, CD66c immunopurified from LS174T colon …; experiment: cell-free flow-based adhesion assay, CD66c-coated microspheres
[3] = target: T2, P-selectin on CHO cells stably …; experiment: blot rolling assay: CHO-P cells perfused at 0.5 dyn/cm2 over blot of immunopurified CEA
Method: In select experiments, CHO-E cells and lymphocytes were pre-treated with an anti-E-selectin or an anti-L-selectin function blocking mAb (20 μg/ml), respectively, before use in blot rolling assays. The saturating concentration of the mAb (20 μg/ml) was maintained in the perfusion assays. Data represent the mean±S.E. of n≧3 experiments.
(§1) Fuhlbrigge et al., I 68 J. IMMUNOL. 5645-5651 (2002). The blots were placed under a parallel-plate flow chamber, and human peripheral blood lymphocytes or CHO transfectants, re-suspended at 5×10⁶ cells/ml in 90% D-PBS/I 0% glycerol, were perfused at the shear stress of 0.5 dyn/cm². Hanley et al., 20 FASEB J. 337-339 (2006); Napier et al., 282 J. BIOL. CHEM. […] Non-specific adhesion was assessed by perfusing 5 mM EDTA in the flow medium.
Although previous studies have reported that CEA and CEA-family members such as CD66c (Kuijpers, et al., 118(2) J CELL BIOL. 457-466 (1992)) bind E-selectin under static/no-flow conditions, the capacity of CEA to interact with E-selectin under physiologically relevant flow conditions as well as its potential cross-reactivity with L- and P-selectin have yet to be examined. […] The specificity of these adhesive interactions was assessed by incubating CHO-E cell suspensions or lymphocytes with an anti-E-selectin or an anti-L-selectin function-blocking mAb, respectively (FIG. 6B).

[4] = target: B2; experiment: blot rolling assay with human peripheral blood lymphocytes at 0.5 dyn/cm2
Excerpt: FIGS. 6A-6B provides the Western blot results from CD66e experiments. […] B: Selectin-dependent adhesion to SDS-PAGE resolved and blotted CEA immunoprecipitated from CD44-knockdown LS174T whole cell lysate. CHO-E cells, lymphocytes or CHO-P cells were perfused at the wall shear stress level of 0.5 dyn/cm² over SDS-PAGE immunoblots of immunopurified CD66e from whole cell lysate of CD44-knockdown LSI 74T cells. In select experiments, CHO-E cells and lymphocytes were pre-treated with an anti-E-selectin or an anti-L-selectin function blocking mAb (20 μg/ml), respectively, before use in blot rolling assays. The saturating concentration of the mAb (20 μg/ml) was maintained in the perfusion assays. Data represent the mean±S.E. of n≧3 experiments.
as §1, with “CHEM. 3433-3441 (2007); and Thomas et al., 283 J BIOL CHEM 15647-15655 (2008). Molecular weight markers were used as guides to aid placement of the flow chamber over stained bands of interest.” for “CHEM.”

[5] = target: B2; experiment: cell-free flow-based adhesion assay, CEA-coated microspheres
Excerpt: A cell-free flow-based adhesion assay (Hanley, et al., 20(2) FASEB J. 20(2), 337-339 (2006); Napier, et al., 282(6) J. BIOL. CHEM. 3433-3441 (2007)) was used to compare the adhesion of microspheres coated with CEA immunopurified from wildtype versus CD44-knockdown LS174T colon carcinoma cells to selectin substrates in shear flow. This technique allows quantitative comparisons of CEA-mediated adhesion to selectin substrates at prescribed CEA and selectin site densities under physiological flow conditions.
To test this hypothesis, the CEA-coated microspheres were perfused over purified selectin substrates under prescribed wall shear stress levels. As expected from blot rolling assays, microspheres coated with CEA from either cell type were capable of tethering and rolling over E- and L-, but not P-, selectin substrates, albeit with varying efficiencies (FIG. 8C-E). Most importantly, the extent of tethering of CD44-knockdown LS174T CEA-coated microspheres to E-selectin was lower than that of microspheres decorated with CEA from wildtype LS174T cells (FIG. 8C). […] In contrast, no difference was detected in either the extent of tethering (FIG. 8C) or the average rolling velocities (FIG. 8E) of microspheres coated with CEA from either cell type over L-selectin.

podocalyxin-like protein (PCLP) immunopurified from LS174T colon carcinoma cell lysate (from UniProt O00592 23-558) (ligand)
reduction of binding after sialidase treatment [1]: 80%

B1
binding result [2]: no binding

B2
binding result [3]: no binding

B3
binding result [4]: binds

B4
binding result [5]: no binding (tested: 10 µg/ml P-selectin coating)
